According to patent US20140377215A1 (BOARD OF TRUSTEES OF THE UNIVERSITY OF ARKANSAS, published 2014):

Experiments:
[1] = target: [(POG)3PCG(POG)4]3; assay: 1H-15N HSQC NMR titration
[2] = target: [11PROXYL-(POG)3PCG(POG)4]3; assay: 1H-15N HSQC NMR titration

B1: collagen-binding domain (CBD), s3b (Gly893-Lys1008) peptide derived from Clostridium histolyticum cl (other)
chain: GNEKLKEKENNDSSDKATVIPNFNTTMQGSLLGDDSRDYYSFEVKEEGEVNIELDKKDEFGVTWTLHPESNINDRITYGQVDGNKVSNKVKLRPGKYYLLVYKYSGSGNYELRVNK
notes: range 893-1008
- binding result [1]: binds
- binding result [2]: binds
